{"source": "patent US20070036793A1", "about": "“Methods for use of an lkb1/strad7mo25 complex” (priority 2003, published 2007)", "key": {"[1]": {"biological_target": "T1, bacterially expressed MO25α (human, UniProt Q9Y376 1-341)", "T1 construct": "Expressed as GST fusion from pGEX-6T in E. coli BL21; GST tag cleaved off; also called MO25α protein (E. coli)", "T1 sequence": "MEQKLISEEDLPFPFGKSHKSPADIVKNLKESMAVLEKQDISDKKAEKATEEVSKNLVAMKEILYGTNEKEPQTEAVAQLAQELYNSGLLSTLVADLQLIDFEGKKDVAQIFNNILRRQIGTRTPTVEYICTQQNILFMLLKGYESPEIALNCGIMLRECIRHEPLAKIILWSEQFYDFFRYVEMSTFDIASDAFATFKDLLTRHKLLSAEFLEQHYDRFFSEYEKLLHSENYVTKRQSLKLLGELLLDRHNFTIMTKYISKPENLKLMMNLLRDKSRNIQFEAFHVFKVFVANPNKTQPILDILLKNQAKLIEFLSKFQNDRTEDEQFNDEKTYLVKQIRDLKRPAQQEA", "assay": "SPR (BiaCore 3000), biotinylated STRADα-C12 peptide on streptavidin chip, MO25α 6.25-3200 nM, steady-state fit", "procedure": "5 μg of the total cell lysates prior to affinity purification were also subjected to immunoblotting with anti-Myc antibody to ensure that Myc-MO25α was expressed at similar levels in each condition (lower panel). (B) 0.5 mg of the indicated cell lysates was incubated with 5 μg of an N-terminal biotinylated peptide encompassing either the C-terminal 12 residues STRADα conjugated to streptavidin-Sepharose ([…], termed STRADα-C12) or mutants of this peptide in which the indicated residues were individually mutated to Ala. Following isolation and washing of the beads, the samples were subjected to SDS-polyacrylamide gel electrophoresis and immunoblotted with an anti-MO25α antibody. (C) Binding of bacterially expressed MO25α to the indicated peptides was analysed by surface plasmon resonance BiaCore analysis as described in Materials and Methods. […] WEF-C12 corresponds to […], WEA-C12 corresponds to […], AEF-C12 corresponds to […], WAF-C12 corresponds to […], WEF-C6 corresponds to VDDWEF.\nBiacore analysis. Binding was analysed in a BiaCore 3000 system (BiaCore AB, Stevenage, UK). The indicated biotinylated peptides were bound to a streptavidin-coated Sensor chip (SA) (20 response units, RU). […] Dissociation of MO25α from each peptide was monitored over a 1 min period. […]"}, "[2]": {"system": "T2, MARK3 FSNEFTVGGKLDTFCGSPPYRRR", "T2 sequence": "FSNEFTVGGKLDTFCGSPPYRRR", "assay": "kinetic analysis of peptide phosphorylation by the LKB1:STRAD:MO25 complex, nonlinear regression"}, "[3]": {"system": "T3, MELK AKPKGNKDYHLQTCCGSLAYRRR", "T3 sequence": "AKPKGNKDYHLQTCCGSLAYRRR", "assay": "kinetic analysis of peptide phosphorylation by the LKB1:STRAD:MO25 complex, nonlinear regression"}, "[4]": {"system": "T4, BRSK2 MASLQVGDSLLETSCGSPHYRRR", "T4 sequence": "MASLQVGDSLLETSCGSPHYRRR", "assay": "kinetic analysis of peptide phosphorylation by the LKB1:STRAD:MO25 complex, nonlinear regression"}, "[5]": {"system": "T5, SIK FGNFYKSGEPLSTWCGSPPYRRR", "T5 sequence": "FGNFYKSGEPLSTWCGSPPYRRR", "assay": "kinetic analysis of peptide phosphorylation by the LKB1:STRAD:MO25 complex, nonlinear regression"}, "[6]": {"system": "peptide derived from the T-loop of AMPKα1 (Example 4, FIG. 26A)"}, "[7]": {"system": "T2, MARK3 FSNEFTVGGKLDTFCGSPPYRRR"}, "[8]": {"system": "T3, MELK AKPKGNKDYHLQTCCGSLAYRRR"}, "[9]": {"system": "T4, BRSK2 MASLQVGDSLLETSCGSPHYRRR"}, "[10]": {"system": "T5, SIK FGNFYKSGEPLSTWCGSPPYRRR"}, "[11]": {"system": "T6, LKBtide peptide (NUAK2 T-loop peptide)", "T6 sequence": "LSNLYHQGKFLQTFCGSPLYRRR"}, "[12]": {"substrate": "CC(C)C[C@H](NC(=O)[C@H](CC(N)=O)NC(=O)[C@H](CO)NC(=O)[C@@H](N)CC(C)C)C(=O)N[C@@H](Cc1ccc(O)cc1)C(=O)N[C@@H](Cc1c[nH]cn1)C(=O)N[C@@H](CCC(N)=O)C(=O)NCC(=O)N[C@@H](CCCCN)C(=O)N[C@@H](Cc1ccccc1)C(=O)N[C@@H](CC(C)C)C(=O)N[C@@H](CCC(N)=O)C(=O)N[C@H](C(=O)N[C@@H](Cc1ccccc1)C(=O)N[C@@H](CS)C(=O)NCC(=O)N[C@@H](CO)C(=O)N1CCC[C@H]1C(=O)N[C@@H](CC(C)C)C(=O)N[C@@H](Cc1ccc(O)cc1)C(=O)N[C@@H](CCCNC(=N)N)C(=O)N[C@@H](CCCNC(=N)N)C(=O)N[C@@H](CCCNC(=N)N)C(=O)O)[C@@H](C)O", "assay": "Kinetic analysis of phosphorylation of T-loop peptides by the LKB1:STRAD:MO25 complex (Example 4)", "assay_type": "biochemical", "details": "other: phosphorylation by LKB1 complex, nonlinear regression; pH 7.5; 30.0 °C", "procedure": "FIG. 26. Identification of peptide substrates for LKB1. (A) Kinetic analysis of the phosphorylation of the indicated T-loop by the LKB1:STRAD:MO25 complex was performed. The T-loop Thr residue in each peptide is underlined and in boldface type and 3 Arg residues were added to the C-terminus of each T-loop peptide to enable their capture on phosphocellulose p81 paper. Km and Vmax values were determined from nonlinear regression. (B) An aliquot of each peptide phosphorylated by LKB1 complex was subjected to solid phase Edman sequencing and ^32P-radioactivity was measured after each cycle of Edman degradation. […] The results are expressed as the peptide kinase activity generated per mg of LKB1:STRAD:MO25 added to the assay. […]\nMeasurement of activation of AMPK-related kinases AMPKα1 catalytic subunit and AMPK-related kinases was measured following their phosphorylation with LKB1 as follows. […] After incubation at 30° C. for the times indicated in the figure legend, AMPKα1 catalytic domain or AMPK-related kinase activities were determined by adding 30 μl of 5 mM magnesium acetate, 0.1 mM [γ-^32P]-ATP (300 cpm/pmol) and 200 μM AMARA peptide (AMARAASAAALARRR (Dale et al., 1995)) as substrate. […] Kinetic data was analysed according to the Michaelis-Menten relationship by non-linear regression using the computer program GraphPad Prism (GraphPad Software Inc, San Diego, USA). […]"}}, "note": "Where no end group is shown, it is not given here. The star is where a group is joined. C6spacer = spacer between biotin and the peptide; Biotin = O=C1N[C@H]2[C@H](CS[C@H]2CCCCC(=O)*)N1"}
{"binder": "{Biotin-C6spacer}-NLEELEVDDWEF (also called WEF-C12; C-terminal 12 residues of STRADα)", "note": "[STRADα-C12 peptide (Biotin-C6spacer-NLEELEVDDWEF)]", "values": [{"measurement": "Kd", "setting": "[1]", "value": 850, "unit": "nM"}]}
{"binder": "LKB1:STRAD:MO25 complex (Example 4, FIG. 26A) (enzyme, part only; not given: STRAD and MO25 subunits, GST) MDVADPEPLGLFSEGELMSVGMDTFIHRIDSTEVIYQPRRKRAKLIGKYLMGDLLGEGSYGKVKEVLDSETLCRRAVKILKKKKLRRIPNGEANVKKEIQLLRRLRHRNVIQLVDVLYNEEKQKMYMVMEYCVCGMQEMLDSVPEKRFPVCQAHGYFRQLIDGLEYLHSQGIVHKDIKPGNLLLTTNGTLKISDLGVAEALHPFAVDDTCRTSQGSPAFQPPEIANGLDTFSGFKVDIWSAGVTLYNITTGLYPFEGDNIYKLFENIGRGDFTIPCDCGPPLSDLLRGMLEYEPAKRFSIRQIRQHSWFRKKHPLAEALVPIPPSPDTKDRWRSMTVVPYLEDLHGRAEEEEEEDLFDIEDGIIYTQDFTVPGQVLEEEVGQNGQSHSLPKAVCVNGTEPQLSSKVKPEGRPGTANPARKVCSSNKIRRLSACKQQ", "values": [{"measurement": "Km", "setting": "[2]", "value": 620, "unit": "µM"}, {"measurement": "Km", "setting": "[3]", "value": "> 3000", "unit": "µM"}, {"measurement": "Km", "setting": "[4]", "value": 400, "unit": "µM"}, {"measurement": "Km", "setting": "[5]", "value": 460, "unit": "µM"}, {"measurement": "Km (phosphorylation of the T-loop peptide)", "setting": "[6]", "value": "(Km, 1.4 mM)"}, {"measurement": "Vmax of phosphorylation of the AMPK T-loop peptide by the complex", "setting": "[6]", "value": 94.1, "unit": "U/mg"}, {"measurement": "Vmax/Km for the AMPK T-loop peptide (Vmax in U/mg, Km in mM)", "setting": "[6]", "value": 67}, {"measurement": "Vmax of phosphorylation of the MARK3 T-loop peptide by the complex", "setting": "[7]", "value": 10.2, "unit": "U/mg"}, {"measurement": "Vmax/Km for the MARK3 T-loop peptide (Vmax in U/mg, Km in mM)", "setting": "[7]", "value": 16}, {"measurement": "Vmax of phosphorylation of the MELK T-loop peptide by the complex", "setting": "[8]", "value": "> 60", "unit": "U/mg"}, {"measurement": "Vmax of phosphorylation of the BRSK2 T-loop peptide by the complex", "setting": "[9]", "value": 10.6, "unit": "U/mg"}, {"measurement": "Vmax/Km for the BRSK2 T-loop peptide (Vmax in U/mg, Km in mM)", "setting": "[9]", "value": 26}, {"measurement": "Vmax of phosphorylation of the SIK T-loop peptide by the complex", "setting": "[10]", "value": 63.9, "unit": "U/mg"}, {"measurement": "Vmax/Km for the SIK T-loop peptide (Vmax in U/mg, Km in mM)", "setting": "[10]", "value": 139}, {"measurement": "Vmax of phosphorylation of the NUAK2 T-loop peptide by the complex", "setting": "[11]", "value": 86.8, "unit": "U/mg"}, {"measurement": "Vmax/Km for the NUAK2 T-loop peptide (Vmax in U/mg, Km in mM)", "setting": "[11]", "value": 578}]}
{"binder": "LKB1:STRAD:MO25 complex (Mus musculus) (protein, Constructs expressing the full length wild type and kinase dead mouse LKB1 have been described previously; made in house; host or cells: 293 cells, co-transfected) MDVADPEPLGLFSEGELMSVGMDTFIHRIDSTEVIYQPRRKRAKLIGKYLMGDLLGEGSYGKVKEVLDSETLCRRAVKILKKKKLRRIPNGEANVKKEIQLLRRLRHRNVIQLVDVLYNEEKQKMYMVMEYCVCGMQEMLDSVPEKRFPVCQAHGYFRQLIDGLEYLHSQGIVHKDIKPGNLLLTTNGTLKISDLGVAEALHPFAVDDTCRTSQGSPAFQPPEIANGLDTFSGFKVDIWSAGVTLYNITTGLYPFEGDNIYKLFENIGRGDFTIPCDCGPPLSDLLRGMLEYEPAKRFSIRQIRQHSWFRKKHPLAEALVPIPPSPDTKDRWRSMTVVPYLEDLHGRAEEEEEEDLFDIEDGIIYTQDFTVPGQVLEEEVGQNGQSHSLPKAVCVNGTEPQLSSKVKPEGRPGTANPARKVCSSNKIRRLSAC", "values": [{"measurement": "Km", "setting": "[12]", "value": 150, "unit": "µM"}]}
